B1: GpH7-A5/GpH7-B3 variant I336_18N/GpL16-k0 (antibody, human IgG1, kappa)
heavy 1: not shown
heavy 2: not shown
light: DIVMTQSPLSLPVTPGEPASISCQASESLVHSNRNTYLHWYLQKPGQSPQLLIYKVSNRFSGVPDRFSGSGSGTDFTLKISRVEAEDVGVYYCSQNTHVPPTFGQGTKVEIERTVAAPSVFIFPPSDEQLKSGTASVVCLLNNFYPREAKVQWKVDNALQSGNSQESVTEQDSKDSTYSLSSTLTLSKADYEKHKVYACEVTHQGLSSPVTKSFNRGEC
notes: also called He Ab I336_18N
B2: GpH7-A5/GpH7-B3 variant T335_10E/GpL16-k0 (antibody, human IgG1, kappa)
heavy 1: not shown
heavy 2: not shown
light: B1 light
notes: also called He Ab T335_10E
B3: GpH7-A5/GpH7-B3 variant T335_16H/GpL16-k0 (antibody, human IgG1, kappa)
heavy 1: not shown
heavy 2: not shown
light: B1 light
notes: also called He Ab T335_16H
B4: GpH7-A5/GpH7-B3 variant T335_19Q/GpL16-k0 (antibody, human IgG1, kappa)
heavy 1: not shown
heavy 2: not shown
light: B1 light
notes: also called He Ab T335_19Q
B5: GpH7-A5/GpH7-B3 variant S239_10E/GpL16-k0 (antibody, human IgG1, kappa)
heavy 1: not shown
heavy 2: not shown
light: B1 light
notes: also called He Ab S239_10E
B6: GpH7-A5/GpH7-B3 variant K334_04F/GpL16-k0 (antibody, human IgG1, kappa)
heavy 1: not shown
heavy 2: not shown
light: B1 light
notes: also called He Ab K334_04F
B7: GpH7-A5/GpH7-B3 variant K326_12R/GpL16-k0 (antibody, human IgG1, kappa)
heavy 1: not shown
heavy 2: not shown
light: B1 light
notes: also called He Ab K326_12R
B8: GpH7-A5/GpH7-B3 variant L328_06M/GpL16-k0 (antibody, human IgG1, kappa)
heavy 1: not shown
heavy 2: not shown
light: B1 light
notes: also called He Ab L328_06M
B9: GpH7-A5/GpH7-B3 variant G236_03V/GpL16-k0 (antibody, human IgG1, kappa)
heavy 1: not shown
heavy 2: not shown
light: B1 light
notes: also called He Ab G236_03V
B10: GpH7-A5/GpH7-B3 variant H268_19Q/GpL16-k0 (antibody, human IgG1, kappa)
heavy 1: not shown
heavy 2: not shown
light: B1 light
notes: also called He Ab H268_19Q
B11: GpH7-A5/GpH7-B3 variant E333_09D/GpL16-k0 (antibody, human IgG1, kappa)
heavy 1: not shown
heavy 2: not shown
light: B1 light
notes: also called He Ab E333_09D
B12: GpH7-A5/GpH7-B3 variant Y296_18N/GpL16-k0 (antibody, human IgG1, kappa)
heavy 1: not shown
heavy 2: not shown
light: B1 light
notes: also called He Ab Y296_18N
B13: GpH7-A5/GpH7-B3 variant T335_07I/GpL16-k0 (antibody, human IgG1, kappa)
heavy 1: not shown
heavy 2: not shown
light: B1 light
notes: also called He Ab T335_07I
B14: GpH7-A5/GpH7-B3 variant S337_08L/GpL16-k0 (antibody, human IgG1, kappa)
heavy 1: not shown
heavy 2: not shown
light: B1 light
notes: also called He Ab S337_08L
B15: GpH7-A5/GpH7-B3 variant I336_08L/GpL16-k0 (antibody, human IgG1, kappa)
heavy 1: not shown
heavy 2: not shown
light: B1 light
notes: also called He Ab I336_08L
B16: GpH7-A5/GpH7-B3 variant L328_14T/GpL16-k0 (antibody, human IgG1, kappa)
heavy 1: not shown
heavy 2: not shown
light: B1 light
notes: also called He Ab L328_14T
B17: GpH7-A5/GpH7-B3 variant S239_08L/GpL16-k0 (antibody, human IgG1, kappa)
heavy 1: not shown
heavy 2: not shown
light: B1 light
notes: also called He Ab S239_08L
B18: GpH7-A5/GpH7-B3 variant S267_09D/GpL16-k0 (antibody, human IgG1, kappa)
heavy 1: not shown
heavy 2: not shown
light: B1 light
notes: also called He Ab S267_09D
B19: GpH7-A5/GpH7-B3 variant H268_18N/GpL16-k0 (antibody, human IgG1, kappa)
heavy 1: not shown
heavy 2: not shown
light: B1 light
notes: also called He Ab H268_18N
B20: GpH7-A5/GpH7-B3 variant T335_13S/GpL16-k0 (antibody, human IgG1, kappa)
heavy 1: not shown
heavy 2: not shown
light: B1 light
notes: also called He Ab T335_13S
B21: GpH7-A5/GpH7-B3 variant K326_19Q/GpL16-k0 (antibody, human IgG1, kappa)
heavy 1: not shown
heavy 2: not shown
light: B1 light
notes: also called He Ab K326_19Q
B22: GpH7-A5/GpH7-B3 variant T335_01G/GpL16-k0 (antibody, human IgG1, kappa)
heavy 1: not shown
heavy 2: not shown
light: B1 light
notes: also called He Ab T335_01G
B23: GpH7-A5/GpH7-B3 variant K326_01G/GpL16-k0 (antibody, human IgG1, kappa)
heavy 1: not shown
heavy 2: not shown
light: B1 light
notes: also called He Ab K326_01G
B24: GpH7-A5/GpH7-B3 variant H268_02A/GpL16-k0 (antibody, human IgG1, kappa)
heavy 1: not shown
heavy 2: not shown
light: B1 light
notes: also called He Ab H268_02A
B25: GpH7-A5/GpH7-B3 variant V266_08L/GpL16-k0 (antibody, human IgG1, kappa)
heavy 1: not shown
heavy 2: not shown
light: B1 light
notes: also called He Ab V266_08L
B26: GpH7-A5/GpH7-B3 variant T335_20W/GpL16-k0 (antibody, human IgG1, kappa)
heavy 1: not shown
heavy 2: not shown
light: B1 light
notes: also called He Ab T335_20W
B27: GpH7-A5/GpH7-B3 variant Y296_04F/GpL16-k0 (antibody, human IgG1, kappa)
heavy 1: not shown
heavy 2: not shown
light: B1 light
notes: also called He Ab Y296_04F
B28: GpH7-A5/GpH7-B3 variant L328_20W/GpL16-k0 (antibody, human IgG1, kappa)
heavy 1: not shown
heavy 2: not shown
light: B1 light
notes: also called He Ab L328_20W
B29: GpH7-A5/GpH7-B3 variant K334_16H/GpL16-k0 (antibody, human IgG1, kappa)
heavy 1: not shown
heavy 2: not shown
light: B1 light
notes: also called He Ab K334_16H
B30: GpH7-A5/GpH7-B3 variant T335_15Y/GpL16-k0 (antibody, human IgG1, kappa)
heavy 1: not shown
heavy 2: not shown
light: B1 light
notes: also called He Ab T335_15Y
B31: GpH7-A5/GpH7-B3 variant S239_09D/GpL16-k0 (antibody, human IgG1, kappa)
heavy 1: not shown
heavy 2: not shown
light: B1 light
notes: also called He Ab S239_09D
B32: GpH7-A5/GpH7-B3 variant Y296_09D/GpL16-k0 (antibody, human IgG1, kappa)
heavy 1: not shown
heavy 2: not shown
light: B1 light
notes: also called He Ab Y296_09D
B33: GpH7-A5/GpH7-B3 variant K326_06M/GpL16-k0 (antibody, human IgG1, kappa)
heavy 1: not shown
heavy 2: not shown
light: B1 light
notes: also called He Ab K326_06M
B34: GpH7-A5/GpH7-B3 variant S337_09D/GpL16-k0 (antibody, human IgG1, kappa)
heavy 1: not shown
heavy 2: not shown
light: B1 light
notes: also called He Ab S337_09D
B35: GpH7-A5/GpH7-B3 variant S324_02A/GpL16-k0 (antibody, human IgG1, kappa)
heavy 1: not shown
heavy 2: not shown
light: B1 light
notes: also called He Ab S324_02A
B36: GpH7-A5/GpH7-B3 variant L234_04F/GpL16-k0 (antibody, human IgG1, kappa)
heavy 1: not shown
heavy 2: not shown
light: B1 light
notes: also called He Ab L234_04F
B37: GpH7-A5/GpH7-B3 variant S267_10E/GpL16-k0 (antibody, human IgG1, kappa)
heavy 1: not shown
heavy 2: not shown
light: B1 light
notes: also called He Ab S267_10E
B38: GpH7-A5/GpH7-B3 variant K334_19Q/GpL16-k0 (antibody, human IgG1, kappa)
heavy 1: not shown
heavy 2: not shown
light: B1 light
notes: also called He Ab K334_19Q
B39: GpH7-A5/GpH7-B3 variant V266_07I/GpL16-k0 (antibody, human IgG1, kappa)
heavy 1: not shown
heavy 2: not shown
light: B1 light
notes: also called He Ab V266_07I
B40: GpH7-A5/GpH7-B3 variant L235_15Y/GpL16-k0 (antibody, human IgG1, kappa)
heavy 1: not shown
heavy 2: not shown
light: B1 light
notes: also called He Ab L235_15Y
B41: GpH7-A5/GpH7-B3 variant L235_04F/GpL16-k0 (antibody, human IgG1, kappa)
heavy 1: not shown
heavy 2: not shown
light: B1 light
notes: also called He Ab L235_04F
B42: GpH7-A5/GpH7-B3 variant A330_16H/GpL16-k0 (antibody, human IgG1, kappa)
heavy 1: not shown
heavy 2: not shown
light: B1 light
notes: also called He Ab A330_16H
B43: GpH7-A5/GpH7-B3 variant K334_08L/GpL16-k0 (antibody, human IgG1, kappa)
heavy 1: not shown
heavy 2: not shown
light: B1 light
notes: also called He Ab K334_08L
B44: GpH7-A5/GpH7-B3 variant S337_10E/GpL16-k0 (antibody, human IgG1, kappa)
heavy 1: not shown
heavy 2: not shown
light: B1 light
notes: also called He Ab S337_10E
B45: GpH7-A5/GpH7-B3 variant K326_07I/GpL16-k0 (antibody, human IgG1, kappa)
heavy 1: not shown
heavy 2: not shown
light: B1 light
notes: also called He Ab K326_07I
B46: GpH7-A5/GpH7-B3 variant G236_07I/GpL16-k0 (antibody, human IgG1, kappa)
heavy 1: not shown
heavy 2: not shown
light: B1 light
notes: also called He Ab G236_07I
B47: GpH7-A5/GpH7-B3 variant L234_20W/GpL16-k0 (antibody, human IgG1, kappa)
heavy 1: not shown
heavy 2: not shown
light: B1 light
notes: also called He Ab L234_20W
B48: GpH7-A5/GpH7-B3 variant S337_07I/GpL16-k0 (antibody, human IgG1, kappa)
heavy 1: not shown
heavy 2: not shown
light: B1 light
notes: also called He Ab S337_07I
B49: GpH7-A5/GpH7-B3 variant I336_06M/GpL16-k0 (antibody, human IgG1, kappa)
heavy 1: not shown
heavy 2: not shown
light: B1 light
notes: also called He Ab I336_06M
B50: GpH7-A5/GpH7-B3 variant S337_20W/GpL16-k0 (antibody, human IgG1, kappa)
heavy 1: not shown
heavy 2: not shown
light: B1 light
notes: also called He Ab S337_20W
B51: GpH7-A5/GpH7-B3 variant L234_15Y/GpL16-k0 (antibody, human IgG1, kappa)
heavy 1: not shown
heavy 2: not shown
light: B1 light
notes: also called He Ab L234_15Y
B52: GpH7-A5/GpH7-B3 variant T335_18N/GpL16-k0 (antibody, human IgG1, kappa)
heavy 1: not shown
heavy 2: not shown
light: B1 light
notes: also called He Ab T335_18N
B53: GpH7-A5/GpH7-B3 variant Y296_16H/GpL16-k0 (antibody, human IgG1, kappa)
heavy 1: not shown
heavy 2: not shown
light: B1 light
notes: also called He Ab Y296_16H
B54: GpH7-A5/GpH7-B3 variant K326_10E/GpL16-k0 (antibody, human IgG1, kappa)
heavy 1: not shown
heavy 2: not shown
light: B1 light
notes: also called He Ab K326_10E
B55: GpH7-A5/GpH7-B3 variant L235_20W/GpL16-k0 (antibody, human IgG1, kappa)
heavy 1: not shown
heavy 2: not shown
light: B1 light
notes: also called He Ab L235_20W
B56: GpH7-A5/GpH7-B3 variant K334_13S/GpL16-k0 (antibody, human IgG1, kappa)
heavy 1: not shown
heavy 2: not shown
light: B1 light
notes: also called He Ab K334_13S
B57: GpH7-A5/GpH7-B3 variant S267_02A/GpL16-k0 (antibody, human IgG1, kappa)
heavy 1: not shown
heavy 2: not shown
light: B1 light
notes: also called He Ab S267_02A

Biological target: FcγRIIa H (human, UniProt P12318 34-217)
Sequence (P12318 34-217): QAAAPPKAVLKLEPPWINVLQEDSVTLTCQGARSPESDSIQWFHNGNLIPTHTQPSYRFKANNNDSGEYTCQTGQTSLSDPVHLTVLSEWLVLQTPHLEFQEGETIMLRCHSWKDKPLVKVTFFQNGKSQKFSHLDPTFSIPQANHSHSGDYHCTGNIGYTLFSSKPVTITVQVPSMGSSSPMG
Assay: SPR Biacore, captured antibody, FcγR analyte; vs GpH7-A5/GpH7-B3/GpL16-k0 = 100

| He/Con_2aH | Binder |
| --- | --- |
| 103 % of control | B1 |
| 108 % of control | B2 |
| 105 % of control | B3 |
| 103 % of control | B4 |
| 112 % of control | B5 |
| 106 % of control | B6 |
| 101 % of control | B7 |
| 104 % of control | B8 |
| 119 % of control | B9 |
| 102 % of control | B10 |
| 103 % of control | B11 |
| 104 % of control | B12 |
| 108 % of control | B13 |
| 100 % of control | B14 |
| 106 % of control | B15 |
| 116 % of control | B16 |
| 105 % of control | B17 |
| 105 % of control | B18 |
| 112 % of control | B19 |

| He/Con_2aH | Binder |
| --- | --- |
| 106 % of control | B20 |
| 101 % of control | B21 |
| 103 % of control | B22 |
| 100 % of control | B23 |
| 114 % of control | B24 |
| 104 % of control | B25 |
| 105 % of control | B26 |
| 100 % of control | B27 |
| 113 % of control | B28 |
| 104 % of control | B29 |
| 106 % of control | B30 |
| 114 % of control | B31 |
| 104 % of control | B32 |
| 103 % of control | B33 |
| 107 % of control | B34 |
| 102 % of control | B35 |
| 120 % of control | B36 |
| 102 % of control | B37 |
| 101 % of control | B38 |

| He/Con_2aH | Binder |
| --- | --- |
| 106 % of control | B39 |
| 122 % of control | B40 |
| 111 % of control | B41 |
| 101 % of control | B42 |
| 104 % of control | B43 |
| 102 % of control | B44 |
| 100 % of control | B45 |
| 115 % of control | B46 |
| 114 % of control | B47 |
| 101 % of control | B48 |
| 106 % of control | B49 |
| 102 % of control | B50 |
| 120 % of control | B51 |
| 103 % of control | B52 |
| 104 % of control | B53 |
| 102 % of control | B54 |
| 118 % of control | B55 |
| 102 % of control | B56 |
| 120 % of control | B57 |

Source: US20150344570A1 (published 2015)
